This note sets out measurements from article PMC6261651, “A functional proteomics platform to reveal the sequence determinants of lysine methyltransferase substrate selectivity” (Science Advances, 2018).

“Also recorded” adds a separate entry of the source.

First the molecules themselves.
B1: PER2: recombinant PER2 (amino acids 691 to 900), N-terminal MBP-His fusion (protein, UniProt O15055 691-900, looked up, fragment)
chain: VEDAASGPESLDCLAGPALACGLSQEKEPFKKLGLTKEVLAAHTQKEEQSFLQKFKEIRKLSIFQSHCHYYLQERSKGQPSERTAPGLRNTSGIDSPWKKTGKNRKLKSKRVKPRDSSESTGSGGPVSARPPLVGLNATAWSPSDTSQSSCPAVPFPAPVPAAYSLPVFPAPGTVAAPPAPPHASFTVPAVPVDLQHQFAVQPPPFPAPL
modifications: N-terminal MBP-His fusion
notes: recombinant PER2 (amino acids 691 to 900), N-terminal MBP-His fusion
B2: MAPKAPK3: full-length recombinant MAPKAPK3, known SMYD2 substrate (protein, UniProt Q16644 1-382, looked up)
chain: MDGETAEEQGGPVPPPVAPGGPGLGGAPGGRREPKKYAVTDDYQLSKQVLGLGVNGKVLECFHRRTGQKCALKLLYDSPKARQEVDHHWQASGGPHIVCILDVYENMHHGKRCLLIIMECMEGGELFSRIQERGDQAFTEREAAEIMRDIGTAIQFLHSHNIAHRDVKPENLLYTSKEKDAVLKLTDFGFAKETTQNALQTPCYTPYYVAPEVLGPEKYDKSCDMWSLGVIMYILLCGFPPFYSNTGQAISPGMKRRIRLGQYGFPNPEWSEVSEDAKQLIRLLLKTDPTERLTITQFMNHPWINQSMVVPQTPLHTARVLQEDKDHWDEVKEEMTSALATMRVDYDQVKIKDLKTSNNRLLNKRRKKQAGSSSASQGCNNQ
modifications: full-length
notes: full-length recombinant MAPKAPK3, known SMYD2 substrate
B3: MAPKAPK3 (D353R and T356S): MAPKAPK3 with mutations predicted to enhance methylation (protein, UniProt Q16644 1-382, looked up, variant D353R T356S)
MAP kinase-activated protein …: MDGETAEEQGGPVPPPVAPGGPGLGGAPGGRREPKKYAVTDDYQLSKQVLGLGVNGKVLECFHRRTGQKCALKLLYDSPKARQEVDHHWQASGGPHIVCILDVYENMHHGKRCLLIIMECMEGGELFSRIQERGDQAFTEREAAEIMRDIGTAIQFLHSHNIAHRDVKPENLLYTSKEKDAVLKLTDFGFAKETTQNALQTPCYTPYYVAPEVLGPEKYDKSCDMWSLGVIMYILLCGFPPFYSNTGQAISPGMKRRIRLGQYGFPNPEWSEVSEDAKQLIRLLLKTDPTERLTITQFMNHPWINQSMVVPQTPLHTARVLQEDKDHWDEVKEEMTSALATMRVDYDQVKIKRLKSSNNRLLNKRRKKQAGSSSASQGCNNQ
B4: GDAP1: recombinant GDAP1 (full length), Abcam (protein, UniProt Q8TB36 1-358, looked up)
chain: MAERQEEQRGSPPLRAEGKADAEVKLILYHWTHSFSSQKVRLVIAEKALKCEEHDVSLPLSEHNEPWFMRLNSTGEVPVLIHGENIICEATQIIDYLEQTFLDERTPRLMPDKESMYYPRVQHYRELLDSLPMDAYTHGCILHPELTVDSMIPAYATTRIRSQIGNTESELKKLAEENPDLQEAYIAKQKRLKSKLLDHDNVKYLKKILDELEKVLDQVETELQRRNEETPEEGQQPWLCGESFTLADVSLAVTLHRLKFLGFARRNWGNGKRPNLETYYERVLKRKTFNKVLGHVNNILISAVLPTAFRVAKKRAPKVLGTTLVVGLLAGVGYFAFMLFRKRLGSMILAFRPRPNYF
modifications: full-length
notes: recombinant GDAP1 (full length), Abcam
B5: CDC5L: recombinant CDC5L (amino acids 150 to 280), N-terminal GST fusion (protein, UniProt Q99459 150-280, looked up, fragment)
chain: EMLSEARARLANTQGKKAKRKAREKQLEEARRLAALQKRRELRAAGIEIQKKRKRKRGVDYNAEIPFEKKPALGFYDTSEENYQALDADFRKLRQQDLDGELRSEKEGRDRKKDKQHLKRKKESDLPSAIL
modifications: N-terminal GST fusion
notes: recombinant CDC5L (amino acids 150 to 280), N-terminal GST fusion
B6: ZPK: recombinant protein, predicted SMYD2 substrate (protein, UniProt Q12852 1-859, looked up)
Mitogen-activated protein …: MACLHETRTPSPSFGGFVSTLSEASMRKLDPDTSDCTPEKDLTPTHVLQLHEQDAGGPGGAAGSPESRASRVRADEVRLQCQSGSGFLEGLFGCLRPVWTMIGKAYSTEHKQQQEDLWEVPFEEILDLQWVGSGAQGAVFLGRFHGEEVAVKKVRDLKETDIKHLRKLKHPNIITFKGVCTQAPCYCILMEFCAQGQLYEVLRAGRPVTPSLLVDWSMGIAGGMNYLHLHKIIHRDLKSPNMLITYDDVVKISDFGTSKELSDKSTKMSFAGTVAWMAPEVIRNEPVSEKVDIWSFGVVLWELLTGEIPYKDVDSSAIIWGVGSNSLHLPVPSSCPDGFKILLRQCWNSKPRNRPSFRQILLHLDIASADVLSTPQETYFKSQAEWREEVKLHFEKIKSEGTCLHRLEEELVMRRREELRHALDIREHYERKLERANNLYMELNALMLQLELKERELLRREQALERRCPGLLKPHPSRGLLHGNTMEKLIKKRNVPQKLSPHSKRPDILKTESLLPKLDAALSGVGLPGCPKGPPSPGRSRRGKTRHRKASAKGSCGDLPGLRTAVPPHEPGGPGSPGGLGGGPSAWEACPPALRGLHHDLLLRKMSSSSPDLLSAALGSRGRGATGGAGDPGSPPPARGDTPPSEGSAPGSTSPDSPGGAKGEPPPPVGPGEGVGLLGTGREGTSGRGGSRAGSQHLTPAALLYRAAVTRSQKRGISSEEEEGEVDSEVELTSSQRWPQSLNMRQSLSTFSSENPSDGEEGTASEPSPSGTPEVGSTNTDERPDERSDDMCSQGSEIPLDPPPSEVIPGPEPSSLPIPHQELLRERGPPNSEDSDCDSTELDNSNSVDALRPPASLPP
B7: ATP6V1G3: recombinant ATP6V1G3 (full length), N-terminal GST fusion (protein, UniProt Q96LB4 1-118, looked up)
chain: MTSQSQGIHQLLQAEKRAKDKLEEAKKRKGKRLKQAKEEAMVEIDQYRMQRDKEFRLKQSKIMGSQNNLSDEIEEQTLGKIQELNGHYNKYMESVMNQLLSMVCDMKPEIHVNYRATN
modifications: full-length N-terminal GST fusion

In one assay the target is T1, SMYD2 (Homo sapiens, UniProt Q9NRG4).
T1 construct: SMYD2 (full length) was expressed as a N-terminal glutathione S-transferase (GST) fusion; GST (N); made in house; host or cells: Escherichia coli BL21(DE3)
T1 sequence (Q9NRG4 whole entry, the tested form may be a part): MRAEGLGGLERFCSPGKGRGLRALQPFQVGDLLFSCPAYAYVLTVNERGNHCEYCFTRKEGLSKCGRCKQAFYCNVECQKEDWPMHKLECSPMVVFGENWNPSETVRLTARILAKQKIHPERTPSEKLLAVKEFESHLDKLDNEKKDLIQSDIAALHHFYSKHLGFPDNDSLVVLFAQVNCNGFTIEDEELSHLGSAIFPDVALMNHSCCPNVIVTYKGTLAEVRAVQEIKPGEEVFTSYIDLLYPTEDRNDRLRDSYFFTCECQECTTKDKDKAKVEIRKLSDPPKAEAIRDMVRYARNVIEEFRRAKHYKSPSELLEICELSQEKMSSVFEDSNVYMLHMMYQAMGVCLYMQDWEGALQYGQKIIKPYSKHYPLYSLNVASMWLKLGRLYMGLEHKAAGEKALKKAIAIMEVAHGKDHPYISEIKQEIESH
Nature of the assay: SPA kinetic analysis of SMYD2 methylation of peptide substrates. The format is biochemical. The note with it: 200 nM SMYD2, 50 μM SAM, varied substrate concentration, mean of three independent measurements (Fig. 4D). Here is the method: Reactions (10 μl) containing 1 μg of KMT, 1 μg of a K-OPL set, and 1 μCi of ^3H-SAM (PerkinElmer) in KMT reaction buffer [50 mM tris (pH 8.8), 5 mM MgCl2, and 4 mM dithiothreitol] were incubated for 1 hour at room temperature. Reactions were stopped by adding trifluoracetic acid to a final concentration of 0.5%, neutralized by diluting with 135 μl of 50 mM NaHCO3, and transferred to streptavidin-coated FlashPlates (PerkinElmer). Plates were incubated for 15 min, sealed, and counted in a MicroBeta2 liquid scintillation counter (PerkinElmer) for 1 min per sample. Initial rate measure and kinetic analysis were performed using the same procedure with 200 nM SMYD2, 50 μM SAM (5:1 cold/hot ratio), and 80 μM substrate (initial rate measurements) or as indicated (kinetic analysis). IC50 measurements were performed using the same conditions with 5 μM PER2 peptide as a substrate.
Regarding B1, the “kinetic model of SMYD2 methylation” value was “consistent with substrate inhibition”.

For the next assay, the target named is T1, SMYD2. Nature of the assay: In vitro SMYD2 methyltransferase assay with protein substrates (SDS-PAGE, 3H fluorography). The format is biochemical. The note with it: 1 μg of KMT, 1 μg of substrate, 1 μCi 3H-SAM, 1 hour, room temperature; 3H fluorography (Fig. 5A, 5B, fig. S5A). How it is done: Reactions (10 μl) containing 1 μg of KMT, 1 μg of the indicated substrates, and 1 μCi of ^3H-SAM (PerkinElmer) in KMT reaction buffer were incubated for 1 hour at room temperature. Reactions were quenched by the addition of SDS loading buffer and resolved by SDS–polyacrylamide gel electrophoresis. Following the detection of total protein by Coomassie staining, gels were treated with EN^3HANCE (PerkinElmer) and dried, and methylated proteins were detected by autoradiography.
Fig. S5. In vitro SMYD2 assays with protein substrates. (A) Coomassie stained SDS-PAGE of recombinant control (HIS-GST), known substrates (p53, MAPKAPK3), and predicted substrates (PRDM11, GDAP1, MAP3K12) in the absence and presence of SMYD2. Reactions were carried out with 1 μg of SMYD2, 1 μg of substrate, and 1 μCi of 3H-SAM. 3H fluorograph shown below after 24 hour exposure at -80 °C (B) Cartoon repre- sentation of ZPK (PDB:
5CEN) showing plus and minus three amino acids from the target lysine (PO) as stick models.
(1 picture or pasted object on this page, not shown here)
On to B2, for which the “methylation of recombinant protein substrate by SMYD2” value (“methylation … by SMYD2” below) was “weaker than most of the newly identified SMYD2 substrates”.

Turning to B3, the “methylation … by SMYD2” value is “improved methylation of this protein”.

In the case of B4, the “methylation … by SMYD2” value is listed as “methylated by SMYD2; also recorded: poor SMYD2 substrates”.

For the molecule B5, the “methylation … by SMYD2” value was “methylated by SMYD2; also recorded: at least as efficiently as the known substrate, p53”.

B6: the “methylation … by SMYD2” value was “methylated by SMYD2; also recorded: poor SMYD2 substrates”.

B7: the “methylation … by SMYD2” value was “methylated by SMYD2; also recorded: at least as efficiently as the known substrate, p53”.

Turning to B1, the “methylation … by SMYD2” value is on record as “methylated by SMYD2; also recorded: at least as efficiently as the known substrate, p53”.
